Assay results as given in patent US20150166621A1 (Hoffmann-La Roche, published 2015).
Square brackets hold non-standard residues; d marks the D form. Nle = CCCC[C@H](N)C(=O)O

B1: peptide of SEQ ID NO: 24 (peptide)
peptide: Ac-ARVYDLGLRRLRQRRRLRRERVRAKRYDREFLLAFQF[Nle]-NH2
SMILES: CCCC[C@H](NC(=O)[C@H](Cc1ccccc1)NC(=O)[C@H](CCC(N)=O)NC(=O)[C@H](Cc1ccccc1)NC(=O)[C@H](C)NC(=O)[C@H](CC(C)C)NC(=O)[C@H](CC(C)C)NC(=O)[C@H](Cc1ccccc1)NC(=O)[C@H](CCC(=O)O)NC(=O)[C@H](CCCNC(=N)N)NC(=O)[C@H](CC(=O)O)NC(=O)[C@H](Cc1ccc(O)cc1)NC(=O)[C@H](CCCNC(=N)N)NC(=O)[C@H](CCCCN)NC(=O)[C@H](C)NC(=O)[C@H](CCCNC(=N)N)NC(=O)[C@@H](NC(=O)[C@H](CCCNC(=N)N)NC(=O)[C@H](CCC(=O)O)NC(=O)[C@H](CCCNC(=N)N)NC(=O)[C@H](CCCNC(=N)N)NC(=O)[C@H](CC(C)C)NC(=O)[C@H](CCCNC(=N)N)NC(=O)[C@H](CCCNC(=N)N)NC(=O)[C@H](CCCNC(=N)N)NC(=O)[C@H](CCC(N)=O)NC(=O)[C@H](CCCNC(=N)N)NC(=O)[C@H](CC(C)C)NC(=O)[C@H](CCCNC(=N)N)NC(=O)[C@H](CCCNC(=N)N)NC(=O)[C@H](CC(C)C)NC(=O)CNC(=O)[C@H](CC(C)C)NC(=O)[C@H](CC(=O)O)NC(=O)[C@H](Cc1ccc(O)cc1)NC(=O)[C@@H](NC(=O)[C@H](CCCNC(=N)N)NC(=O)[C@H](C)NC(C)=O)C(C)C)C(C)C)C(N)=O
B2: peptide of SEQ ID NO: 23 (peptide)
peptide: Ac-KRYDREFLLAFQF[Nle]VYDLGLRRLRQRRRLRRERVRA-NH2
SMILES: CCCC[C@H](NC(=O)[C@H](Cc1ccccc1)NC(=O)[C@H](CCC(N)=O)NC(=O)[C@H](Cc1ccccc1)NC(=O)[C@H](C)NC(=O)[C@H](CC(C)C)NC(=O)[C@H](CC(C)C)NC(=O)[C@H](Cc1ccccc1)NC(=O)[C@H](CCC(=O)O)NC(=O)[C@H](CCCNC(=N)N)NC(=O)[C@H](CC(=O)O)NC(=O)[C@H](Cc1ccc(O)cc1)NC(=O)[C@H](CCCNC(=N)N)NC(=O)[C@H](CCCCN)NC(C)=O)C(=O)N[C@H](C(=O)N[C@@H](Cc1ccc(O)cc1)C(=O)N[C@@H](CC(=O)O)C(=O)N[C@@H](CC(C)C)C(=O)NCC(=O)N[C@@H](CC(C)C)C(=O)N[C@@H](CCCNC(=N)N)C(=O)N[C@@H](CCCNC(=N)N)C(=O)N[C@@H](CC(C)C)C(=O)N[C@@H](CCCNC(=N)N)C(=O)N[C@@H](CCC(N)=O)C(=O)N[C@@H](CCCNC(=N)N)C(=O)N[C@@H](CCCNC(=N)N)C(=O)N[C@@H](CCCNC(=N)N)C(=O)N[C@@H](CC(C)C)C(=O)N[C@@H](CCCNC(=N)N)C(=O)N[C@@H](CCCNC(=N)N)C(=O)N[C@@H](CCC(=O)O)C(=O)N[C@@H](CCCNC(=N)N)C(=O)N[C@H](C(=O)N[C@@H](CCCNC(=N)N)C(=O)N[C@@H](C)C(N)=O)C(C)C)C(C)C
B3: peptide of SEQ ID NO: 26 (peptide)
peptide: Ac-GAAEAAARVYDLGLRRLRQRRYLRRELLRF-NH2
B4: peptide of SEQ ID NO: 25 (peptide)
peptide: Ac-GAAEAAAYVYDLLLRFLRQRRRLRRERVRA-NH2

Biological target: T1, Human eIF4E (aa 28-217) with a C-terminal His tag (human, UniProt P06730 28-217)
T1 construct: also called HH-eIF4E; eukaryotic initiation factor 4E
Assay: TR-FRET competition vs biotin-4G2 peptide on HH-eIF4E
Protocol: Test peptides (1.6 mM stock in DMSO) were diluted 3 fold in series in DMSO and solutions were diluted 4 fold in Assay Buffer (50 mM NaPi, pH 6.5, 50 mM KCl, 1 mM DTT, 0.004% NP40 and 0.5 mg/ml gammaglobulin). […] The samples were incubated at room temperature for 20 minutes.
IC50 values were calculated using Condoseo software (Genedata AG, Basel, Switzerland).

T1 sequence (P06730 other isoform, or with tags, fused parts or gaps limits assumed): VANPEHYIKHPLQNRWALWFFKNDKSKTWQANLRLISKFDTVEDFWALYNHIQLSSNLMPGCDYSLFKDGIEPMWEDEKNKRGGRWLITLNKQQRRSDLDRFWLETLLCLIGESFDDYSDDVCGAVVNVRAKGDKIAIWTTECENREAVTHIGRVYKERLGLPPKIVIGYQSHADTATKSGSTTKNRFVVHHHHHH

IC50	Binder
19 nM	B1
180 nM	B2
250 nM	B3
11000 nM	B4
